The target of this test is T1, ALFA-tagged target immobilised for SPR with NbALFA (TST-NEDD8-ALFA or GFP-ALFA) (synthetic (designed ALFA-tag)).
T1 chain: SRLEEELRRRLTE
Briefly: SPR.

B1: NbALFA (non-tagged) (VHH)
VHH: EVQLQESGGGLVQPGGSLRLSCTASGVTISALNAMAMGWYRQAPGERRVMVAAVSERGNAMYRESVQGRFTVTRDFTNKMVSLQMDNLKPEDTAVYYCHVLEDRVDSFHDYWGQGTQVTVSS
For B1, the Kd (as a rule, the concentration at which binding is half-saturated) was approximately 0.026 nM.

The values above are taken from article doi:10.1101/640771 (bioRxiv, 2019).
